System: MS2 coat protein
Test: apparent KD of MS2 coat protein; designed switch direction (-1 OFF switch, 1 ON switch): -1; higher = weaker reporter binding
In short: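 Stalled E. coli RNA polymerase transcribed designed RNA switches on Illumina chips, which were then titrated with SNAP-549-labelled MS2 coat protein, doubling from 0.7 or 1.5 nM to 3 µM. Steps lasted from 0.8–1.5 h at the lowest concentration to 10–20 min at the highest. The apparent KD is each design's median over clusters of curve-fitted normalised fluorescence.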

[1] = input ligand: microRNA oligo, concentration not stated
[2] = Eterna round: R95, input ligand: microRNA oligo, concentration not stated

AGUAUGCGAGGAUAUACAUGAGGAUCACCCAUGUGAGAGAUAAAAGUGAGAAAGACAAGUAGAAGGCGCGUACA [JL Lego Mod 23] (Eterna round: R96, puzzle: Exclusion 3)
apparent KD of MS2 coat protein (input ligand: FMN 200 uM): 413 nM
apparent KD of MS2 coat protein [1]: 41.9 nM
apparent KD of MS2 coat protein (input ligand: none): 81.1 nM

AGUCAGACGGUAGGAUAUCCAUAUCGAGUGACCCUUUCAUAACAUGAGGAUCACCCAUGUCGGUGGGAGAAGGGCCGUACGGCG [JL ViennaUCT Atra mod 5] (Eterna round: R96, puzzle: Exclusion NG 2)
apparent KD of MS2 coat protein (input ligand: FMN 200 uM): 226 nM
apparent KD of MS2 coat protein [1]: 93.3 nM
apparent KD of MS2 coat protein (input ligand: none): 129 nM

AGUCAGGCGGUAGGAUAUCCAAACCGAGUGACCCUCUCAUAACAUGAGGAUCACCCAUGUCGGUGGGAGAAGGGCCGUACGGCG [Atra] (Eterna round: R96, puzzle: Exclusion NG 2)
apparent KD of MS2 coat protein (input ligand: FMN 200 uM): 206 nM
apparent KD of MS2 coat protein [1]: 90 nM
apparent KD of MS2 coat protein (input ligand: none): 117 nM

AGUCAGUCAGGAUAUCAAAUCCGUGGACCUUACGAUGCGGCUGAGAAGGGACAUGAGGAUCACCCAUGUUGGGU [Eternabot (L2) Solution 27] (Eterna round: R97, puzzle: Exclusion 4)
apparent KD of MS2 coat protein (input ligand: FMN 200 uM): 60.8 nM
apparent KD of MS2 coat protein (input ligand: none): 66.5 nM

AGUCCUGCGGUGAGGAUAUAUUUGUAGCCAUUCAGGUAGAAGGCACUUGAGGAUCACCCAAGUAAAGAACCAAC [Releat] (Eterna round: R97, puzzle: Brourd's mod of Exclusion 4)
apparent KD of MS2 coat protein (input ligand: FMN 200 uM): 39 nM
apparent KD of MS2 coat protein (input ligand: none): 28 nM

AGUCGGCGAGGAUAUACAUGAGGAUCACCCAUGUGGAAUCCUAGACCUGUAGGUCCAUGUAGAAGGCGCUGACA [Exclusion 3 - Was a mod at one point v.2] (puzzle: Exclusion 3)
apparent KD of MS2 coat protein (Eterna round: R95, input ligand: FMN 200 uM): 32.2 nM
apparent KD of MS2 coat protein [2]: 212 nM
apparent KD of MS2 coat protein (Eterna round: R95, input ligand: none): 192 nM

AGUCGUAGACAGGAUAUGCGGCUAAUAAAUAAUGCAGAAGGGUCUACUUGAGGAUCACCCAAGUGGGCGGUCUG [jl-ex6-4.23 ViennaUCT mod] (Eterna round: R97, puzzle: Exclusion 6)
apparent KD of MS2 coat protein (input ligand: FMN 200 uM): 70.3 nM
apparent KD of MS2 coat protein (input ligand: none): 17.3 nM

AGUGACUUAGGAUAUUGGCAUGAAGACAUGAGGAUCACCCAUGUCCUCGUAGUCAUUCGCCGAGAAGGGAGAGAUU [Eternabot (L2) Solution 50] (Eterna round: R97, puzzle: Exclusion 5)
apparent KD of MS2 coat protein (input ligand: FMN 200 uM): 126 nM
apparent KD of MS2 coat protein (input ligand: none): 84.4 nM

AGUGGGCUAGGAUAUCGAUGAACUCACAUGAGGAUCACCCAUGUGUCUUCGGUGGGCUCACGAGAAGGAGUAAGUU [Teanislaa] (puzzle: Exclusion 5)
apparent KD of MS2 coat protein [2]: 15.7 nM

AGUGGGUCAGGAUAUUCUAUUAAUUACAUGAGGAUCACCCAUGUGAAUGGACAAGGGUGUGAAGAAGGGACUUGCG [Omei Ex5 A17d] (Eterna round: R97, puzzle: Exclusion 5)
apparent KD of MS2 coat protein (input ligand: FMN 200 uM): 324 nM
apparent KD of MS2 coat protein (input ligand: none): 546 nM

AGUGUGAGGCAGGAUAUGCUAUAUGUACGUAAUGCAGAAGGGUCUACAUGAGGAUCACCCAUGUGUGCGGUUGA [Ex6 #8] (Eterna round: R97, puzzle: Exclusion 6)
apparent KD of MS2 coat protein (input ligand: FMN 200 uM): 309 nM
apparent KD of MS2 coat protein (input ligand: none): 289 nM

AGUGUGUCAGGAUAUUCUAUUAAUUACAUGAGGAUCACCCAUGUGAAUGGACAAGGGUGUGAAGAAGGGACGUGCG [Omei Ex5 A17e] (Eterna round: R97, puzzle: Exclusion 5)
apparent KD of MS2 coat protein (input ligand: FMN 200 uM): 211 nM
apparent KD of MS2 coat protein (input ligand: none): 381 nM

AGUGUGUGGCAGGAUAUUCUAAUCGUGAGUCGGGAAGAAGGGUCUACAUGAGGAUCACCCAUGUGAGCGGUUGA [Ex6 #45] (Eterna round: R97, puzzle: Exclusion 6)
apparent KD of MS2 coat protein (input ligand: FMN 200 uM): 219 nM
apparent KD of MS2 coat protein (input ligand: none): 245 nM

AGUUCGCAGAGAGGAUAUAUAGGGUUACGGCCUAUAGAAGGUUCACGUUAGCCGCAACAUGAGGAUCACCCAUGUGCUCCGCGA [Eternabot solution 35] (Eterna round: R96, puzzle: Exclusion NG 1)
apparent KD of MS2 coat protein (input ligand: FMN 200 uM): 27.5 nM
apparent KD of MS2 coat protein [1]: 20.9 nM
apparent KD of MS2 coat protein (input ligand: none): 29.6 nM

Source: the supplement of paper PMC9170038
